For one substance, stoichiometry N results are on record in publication PMC9668089.

One may read the stoichiometry N as the number of molecules, sites or subunits per partner or assembly.

In this assay the target is p170, truncated ORF2-encoded protein of aa 439-608 from hepatitis E virus CCJD-517 (hepatitis E virus CCJD-517 (HEV-3)). The assay can be described thus: non-reducing SDS-PAGE.

The substance “p170, truncated ORF2-encoded protein of aa 439-608 from hepatitis E virus CCJD-517 (domain or fragment)” showed a stoichiometry N of 2.
